# Assay results as given in patent US20080118499.
# T1: in vitro translated GGA3 wild type (from HA-GGA3 pcDNA4 plasmid), Q9NZ52
# T1 chain: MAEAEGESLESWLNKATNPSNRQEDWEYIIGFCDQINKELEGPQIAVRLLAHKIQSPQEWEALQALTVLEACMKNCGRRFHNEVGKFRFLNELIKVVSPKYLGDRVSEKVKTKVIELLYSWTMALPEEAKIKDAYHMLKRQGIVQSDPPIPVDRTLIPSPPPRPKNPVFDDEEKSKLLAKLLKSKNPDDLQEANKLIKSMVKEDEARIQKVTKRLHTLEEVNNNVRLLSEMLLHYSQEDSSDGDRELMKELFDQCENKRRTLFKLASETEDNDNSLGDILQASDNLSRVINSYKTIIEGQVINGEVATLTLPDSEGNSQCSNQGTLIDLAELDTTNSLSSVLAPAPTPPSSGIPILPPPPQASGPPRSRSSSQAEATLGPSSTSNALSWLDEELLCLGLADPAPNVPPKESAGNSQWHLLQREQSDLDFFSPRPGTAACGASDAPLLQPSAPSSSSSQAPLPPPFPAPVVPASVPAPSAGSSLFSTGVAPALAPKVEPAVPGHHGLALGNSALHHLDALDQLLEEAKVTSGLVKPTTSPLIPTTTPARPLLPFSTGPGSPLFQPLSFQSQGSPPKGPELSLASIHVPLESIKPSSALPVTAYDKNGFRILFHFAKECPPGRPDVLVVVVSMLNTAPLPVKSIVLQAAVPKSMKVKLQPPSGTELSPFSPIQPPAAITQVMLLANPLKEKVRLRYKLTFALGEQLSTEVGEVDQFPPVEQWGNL
# Target: T1, in vitro translated GGA3 wild type …
protein,measurement,value
recombinant caspase 3 (Pharmingen) (protein) SGISLDNSYKMDYPEMGLCIIINNKNFHKSTGMTSRSGTDVDAANLRETFRNLKYEVRNKNDLTREEIVELMRDVSKEDHSKRSSFVCVLLSHGEEGIIFGTNGPVDLKKITNFFRGDRCRSLTGKPKLFIIQACRGTELDCGIETDSGVDDDMACHKIPVEADFLYAYSTAPGYYSWRNSKDGSWFIQSLCAMLKQYADKLEFMHILTRVNRKVATEFESFSFDATFHAKKQIPCIVSMLTKELYFYH,"cleavage of in vitro translated GGA3 (cold methionine), Western blot with anti-GGA3 antibody",recombinant caspase 3 cleaves in vitro translated GGA3 (cold methionine) in three fragments
same,"cleavage of in vitro translated [35S]-methionine-labeled GGA3 (SDS-PAGE, phosphorimager)",Recombinant caspase 3 cleaved in vitro translated GGA3 in several fragments
